Experimental data reported in a protein production outcome set (Wang et al. 2014).

Assay: label from the status in PepcDB records

| Sequence | protein production |
| --- | --- |
| MVSNQRVRLFMLCFCLVNNAVIAATEDENVERKPYIVYMGEATENSLVEAAENHHNLLMTVIGDESKARELKIYSYGKNINGFVARLFPHEAEKLSREEGVVSVFKNTQRQLHTTRSWDFLGLVESKYKRSVGIESNIIVGVLDTGIDVESPSFNDKGVGPPPAKWKGKCVTGNNFTRCNNKVIGAKYFHIQSEGLPDGEGDTAADHDGHGTHTSSTIAGVSVSSASLFGIANGTARGGVPSARIAAYKVCWDSGCTDMDMLAAFDEAISDGVDIISISIGGASLPFFEDPIAIGAFHAMKRGILTTCSAGNNGPGLFTVSNLAPWVMTVAANSLDRKFETVVKLGNGLTASGISLNGFNPRKKMYPLTSGSLASNLSAGGYGEPSTCEPGTLGEDKVMGKVVYCEAGREEGGNGGQGQDHVVRSLKGAGVIVQLLEPTDMATSTLIAGSYVFFEDGTKITEYINSTKNPQAVIFKTKTTKMLAPSISSFSARGPQRISPNILKPDISAPGLNILAAYSKLASVTGYPDDNRRTLFSIMSGTSMACPHAAAAAAYVKSFHPDWSPAAIKSALMTTATPMRIKGNEAELSYGSGQINPRRAIHPGLVYDITEDAYLRFLCKEGYNSTSIGLLTGDNSNNTTKKEYNCENIKRGLGSDGLNYPSLHKQVNSTEAKVSEVFYRTVTNVGYGPSTYVARVWAPKGLRVEVVPKVMSFERPKEKRNFKVVIDGVWDETMKGIVSASVEWDDSRGHLVRSPILLFRSDNDYR | failed |
| MRCLRHARRQSQGVRGGRGMARADRGDGDGDAEAEDGRHSTASDARLTQLLRTDTATAYPALRELRTRHRPAVLGYARLCTVDDAAARRLTAQAFALAARDTARGSDPRGPWRHQLLLLAGRVAASWAADERAARLDPDLLAHLGAAGSRAQVPPLLAAFQSLPSRVQGVVWYAVVEGEPDDRTADFVGLTREDVTYGTEPAFQSLRQSCLTTRLAASDDPRCQDFRRLIEESVRPDNPRYSADLHAHMVHCVYCATAYDELSALRDDPRTALAAGLLAWGGAAYVTGGAVTRRAVAGGPGPSGPGPGDPGPGPAPGWWPSRRFVLASTALGVALIPFLAYLLVSGGPEPERAANAVATPSRPPAVTVTATVSATPSPSPSHTAGKSPKPSRSPSASKTTRPPSPKPSPKPPAPHPPNGSFAQVVNADSGLCLDIRDGVMDLGTDVVTAPCTSSRTQRWRVDTARGVLQSSEDPDFCLDSRGSTDRGVGIWECGAVYGRNGRNLRFTVDAQGVIRPAVAPDHAVTPYGDALFLVPAEGRAAQRWRAGAA | failed |
| MRWLNRHKFLPFLAWLPQQSRASVGRDALVGLSGAILALPQSIAYALIAGLPPEYGLYAAIVPVLIACLWGSSWHLICGPTAAISIVLYVSVSPLAVPASQDYIMLILLLTFIAGVFQLLLGMMRFGALVNFVSHSVVLGFTLGAAVVIALGQMPNLLGIDLPSQTTALKSLSAVLEHRGELDKPSLMLGLLTLTLGIGLKAWVPRWPTLLIALVSSSLLVWLWPAMFGHVRVVSAFVGHLPPFSPLPLDLELILKLLPTAVAVGMLGLVNSLSIARSLSARSQQMLNANQEVRAQGLSNMVGSLFSGYLSAGSFTRAALSYEAGARSPLAGVFSALWVALFAVAGASLVSHIPIPAMAASILLICWGLVDRRGIRALLRVSRAEFFVMALTCLATLLLELQTAIYAGVLASLFFYLKRTSQPRVQQWREGDEDVLRVGGSIFFGASHYLQTRLQRTEGLRVVIDAQQINFIDYSGVEMLHQEARRLGQQGRVLVLRNARPLVIEELHKLEGPENCPILFED | failed |
| MKSHKMMGGGISMHYITACLKIISDKDLNEIMKEFKKLEEETNKEEGCITFHAYPLEPSERKIMLWEIWENEEAVKIHFTKKHTIDVQKQELTEVEWLMKSNVND | not failed |
| MLSQTLLEMTEQMIEVAEKGADRYQEGKNSNHSYDFFETIKPAVEENDELAARWAEGALELIKVRRPKYVHKEQIEAVKDNFLELVLQSYVHHIHKKRFKDITESVLYTLHAVKDEIAREDSRLEHHHHHH | not failed |
| MSLIYTITLNPAIDRLLFIRGELEKRKTNRVIKTEFDCGGKGLHVSGVLSKFGIKNEALGIAGSDNLDKLYAILKEKHINHDFLVEAGTSTRECFVVLSDDTNGSTMIPEAGFTVSQTNKDNLLKQIAKKVKKEDMVVIAGSPPPHYTLSDFKELLRTVKATGAFLGCDNSGEYLNLAVEMGVDFIKPNEDEVIAILDEKTNSLEENIRTLAEKIPYLVVSLGAKGSICAHNGKLYQVIPPKVQERNDTGAGDVFVGAFIAGLAMNMPITETLKVATGCSASKVMQQDSSSFDLEAAGKLKNQVSIIQLEEREGHHHHHH | not failed |
| MEAKKSNKIREIVKLQQLLKKWRKQAIASKAANNNNEDNNSSGGGSKSIKFLKRTLSFTDVTAVPKGYLAVSVGLEKKRYTIPTEYLSHQAFYVLLREAEEEFGFQQAGVLRIPCEVSVFESILKIMEEKNEGYLVTPITAKQECKFNAAADDKTSYQHPSDCPKTPSHQPHNSPMCR | not failed |
| MSGGQQERHVLILNTVGGRRAIALEAAAYSLGRDESNAIVIDFETVSRQHAILLRVPVPGTTSYRYRLVDGNANGKPSTNGTFVNGKRISSHELQHGDVILFGRKAKASYLLLSMADTEFSQYLQSIAFQSIKSDLRGAKETLVGMELSGELRRTPNRELVAAGATQLHPELEPAKDTLSSESDSEPKGNNKETLHEKESQGSKTNLVALGAIALVVVAIIAGAVWRAGFSANPPQGSPPATPTRN | failed |
| MACFSSLSTGVLDMYDLIIVGGGPSGASAGRVAGKAGISTLLIEKENFPRYKPCGGALSPYALSCLDFKLPEYLIEKDISRIRVHFRELCTEMQKDYSIALLVSRKAFDNFLLDKARETGIDIHSGEKVLDCEEGEECVEVRTSQNTYLAKFVLIAEGSEGVLKYSVRKRKDRRTEYDLALVSEIPERDKVIRKRFPNAIDMHFGIASGGYGWIFPHSEHYSVGIVGTAEHLKHPKAVMQDFLQANGFSGDFQVHSHIIPVGGIKRKTISSRILLSGDAAGFVDAFIGEGISYAIRSGQLAAENVAEIVLYNRKLSDLKEYETSCRKEFGNFLSSSLKLEKAMHRFPETSFRLALSRKEIIDKYLEEVVINRSHKDYVRWLLLNFSLSEPASKIKSIKDKNQLEHHHHHH | failed |
| MAIQGSRTEGLGGYTFDDLAVVMGTYNEEEAIGTVLDDIATVTDGRAEVICVDGSSDRTPEIARDHGATVIEQEPQGYGVAVREAVLTPDRPVVVTTDCDDTYPMERLPDFLAEINDGADVVSGDRLYYGAEQMPAMNKLGNELFALLASVLMGKRVHDTTTGMRAYRREVLQKIVWTENTGLSAELLMRPLMRGYDVRERPIEYDERKGETKLDPFSGGAAIAKSIVRVALEERFRLEHHHHHH | not failed |
| MLNDKMYHGKGLRKGDLRLYHELYNLQVMKWPVNPLDVIIEKIKRREGNGVIADIGCGEARIAREFENVISLDLHPVGKDVIPCDMRRRIPLDDGSVDVAVCCLSMMVEDIAVPTKEINRILRNGGHWYIAEVRSRIPSVGLLERKFESLGFDVEHVDVSNAQFVLFVLQK | failed |
| MFPFTHVHAFNKGNEEVYMDVENGKNGEGSVFRMPLHYPRYSKEDYQDMPEWKLDRVLADYGLSTYGDLAHKRDFAIGAFLWISTRNPKLYQEKSINSKLKKDTKSAHA | failed |
| MKWPWWPVCVPLSKRLTLPLPSTANPVVQPSRLALACANRLFEAADNRERFLQALMTPPAYPATVLWCGEPAAALPFAALPPLPWQPPWVSRFVAGSPTGQHPLHAAGAYYCLDSSSVFAAVPLLTLPQEPSLVIDVCAAPGGKSLFAWRSLHPRYLICNETIGKRVGKLIGNLKRCRVHPVGVTSWDSEVLAAEFQGTADVVIVDAPCSGQSLLAKGQKAEGCFHPLTIRHNQRRQKRILAAATTLVRPGGWLLYSTCTFSQDENEDVAAWLMAKFPHLLPQPVPALAAYQSHLAAFPCYRLWPHQGEGAGAFTILWQHQGLEHHHHHH | not failed |
| MGKFTQRLSLRVRLTLIFLILASVTWLLSSFVAWKQTTDNVDELFDTQLMLFAKRLSTLDLNEINAADRMAQTPNRLKHGHVDDDALTFAIFTHDGRMVLNDGDNGEDIPYSYQREGFADGQLVGEDDPWRFVWMTSPDGKYRIVVGQEWEYREDMALAIVAGQLIPWLVALPIMLIIMMVLLGRE | not failed |
| MSLSVAIIGPGAVGTTIAYELQQSLPHTTLIGRHAKTITYYTVPHAPAQDIVVKGYEDVTNTFDVIIIAVKTHQLDAVIPHLTYLAHEDTLIILAQNGYGQLEHIPFKNVCQAVVYISGQKKGDVVTHFRDYQLRIQDNALTRQFRDLVQDSQIDIVLEANIQQAIWYKLLVNLGINSITALGRQTVAIMHNPEIRILCRQLLLDGCRVAQAEGLNFSEQTVDTIMTIYQGYPDEMGTSMYYDIVHQQPLEVEAIQGFIYRRAREHNLDTPYLDTIYSFLRAYQQNEGHHHHHH | not failed |
| MYIIFALLAFSALILVHELGHFIVAKLNGIYVEEFAIGMGPKLFGVKVGETEYNLRILPFGGFVKMLGEEDESDDSGSLNAKTPIQRILVMGAGAFMNYVLALIIFIGLAMSSGFAENKVASVVPNSPAQEIGIEQGDEFLKIDGNKIHTTDDFRMGLALAKGNPVELEIKRGNDVLTKTVQPILNESGMYQVGISYALVEKPTLLQGIKQGFNETRSLVSQSFIALKTIVTGEANLKTDVGGPVTIIKMSGQAAKAGANTLLWFMAFLSVQLAVFNLLPFPALDGGRIFIELIQMIIRKEIPAKYIEAVNTVGFMLLMGLMVLVTIKDIIFPIL | failed |
| MDLKESQEFSGLIAGKPRISYQNDYGGHRTNLHLLDSRLWIILSGQAAILGFCGNTVLAEDESMKSKSGDNMDESGNTGLEKIEDGSVVSNIHTSKWRVFTDSGRDYFFQGKLEPAERLFGSAIQEAKEGFGEKDPHVASACNNLAELYRVKKEFDKAEPLYLEAVSILEEFYGPDDVRVGATLHNLGQLYLVQRKLEEARACYEIRRCVFAVISYVKNYDELES | failed |
| MLGEFKHYKTRLAHGGIPQEVQNLLLEYGVEIFAEMLVEGLSRIKRCTDEGRVLMSLDLQVLINGLQHFVPTKVKPKLQIVETFIKAYYLPETEYVHWARAHPEYTKAQVVGLVNLVATMKGWKRKTRLEVIEKIESASM | failed |
| MNKMIILLVIAIIFLHMCLIWLWYRYTNNPSVVDVGWASGLTLAGLIYLNNQEFSLRSLLLVLALLTWGIRLGGYLWWTRIRLKKIDKRYLALSNDWKLAKPLGFFLNFQLQGVLICLVSIPWYFSSSETQTALNLLDGLALIIFLTALILETVADNQLQDFKKNYPGKVCNQKLWRYCRHPNYFYEWLVWCSFTLFALSAPYGWIAIISPLTLYLIMTKITAPMTEQGSIESRGNLYIEYQKVTPMFFPKWLKNNSTPRK | failed |
| MSCTNRVPGILMCEIFIRANQRSYSVQARSLRLHGVATSVRLEQLFWDVLEEIAARDGMRVTQLIERLYDELVQYRGEAANFTSFLRVCCLRYQVLQAEGRIPADATVPIRSLDAQAVLRGLPANLYDSRPLG | failed |
| MLAGGKMGDMKITRHIHACVEISQGNDRIIIDPGTFGAPDLCGATILVTHNHADHVDPELLKPGMTIYAPRSVAHSIPVECHIVEHGRNFTVGSLSVEVLGSEHAMLTHSMPIAENVGYLINGRVLHPGDTFQPIKDVELALVPVNGPWVKMLDVEGYLKKFPPKRFIGIHDGIVNDRGLAINKKFLTHLGETYGSEYSPLEEGESLEILEHHHHHH | failed |
| MKRLDLVAGPNGAGKSTFVALTLAPLLPGIVFVNADEIAKQRWPDDPTSHAYQAAQVAADTRARLIDLGRPFIAETVFSHPSKLELIRTARTAGYTVVLHVLVIPEGLAVERVRHRVAAGGHDVPETKIRERHRRLAELVAQAITLADGATVYDNSRLAGPRIVAQFSGGGIIGRACWPSWTPPPLMSRWSNRPETA | failed |
